Positions count from the first letter of the chain named.
Key:
[1] = molecular target: human ALPPL2 on tumor cells (M28, SKOV3, AsPC1) (human) (UniProt P10696); test: apparent KD, flow cytometry, Fab on living M28 cells
[2] = molecular target: T1, human ALPPL2-Fc (human, UniProt P10696 20-503); test: biolayer interferometry, tips loaded with human ALPPL2-Fc, 100 nM DSDbody as analyte
T1 construct: also called ALPG; not shown: Fc part not described
Method: (§1) FIG. 12. Binding of SYLY×CD3 DSDbody to human ALPP2 and ALPI measured by biolayer interferometry. Tips were loaded with either human ALPPL2-Fc or human ALPI-Fc, followed by an association step with 100 nM SYLY×CD3 DSDbody and then a dissociation step. Calculated affinites are shown in the graph. ND: not determined.
(§2) The DSDbody was also evaluated by biolayer interferometry for cross-species binding to both human and cynomolgus monkey CD3 epsilon chains.

[3] = molecular target: T2, human ALPI-Fc (human, UniProt P09923 20-503); test: BLI; tips loaded with human ALPI-Fc, association with 100 nM SYLYxCD3 DSDbody, then dissociation
T2 construct: not shown: Fc part not described
T2 sequence (looked up): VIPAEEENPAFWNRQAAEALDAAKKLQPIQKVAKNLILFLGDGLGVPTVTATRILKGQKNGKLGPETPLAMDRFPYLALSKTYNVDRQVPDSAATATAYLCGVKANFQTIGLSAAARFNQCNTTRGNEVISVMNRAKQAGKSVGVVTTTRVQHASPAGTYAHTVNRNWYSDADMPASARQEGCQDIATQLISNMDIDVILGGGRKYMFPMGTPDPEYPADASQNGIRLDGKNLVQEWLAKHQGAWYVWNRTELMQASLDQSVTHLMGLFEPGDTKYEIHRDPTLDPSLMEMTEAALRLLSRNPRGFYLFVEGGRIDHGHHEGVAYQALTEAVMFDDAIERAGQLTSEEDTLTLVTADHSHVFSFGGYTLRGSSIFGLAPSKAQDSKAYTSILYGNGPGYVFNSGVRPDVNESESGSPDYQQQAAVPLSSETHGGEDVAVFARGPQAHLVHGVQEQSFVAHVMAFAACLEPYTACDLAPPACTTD
Method: as §1, §2

[4] = molecular target: T3, human CD3 epsilon (human, UniProt P07766 23-126); test: biolayer interferometry, tips loaded with human CD3 epsilon, 100 nM DSDbody as analyte
T3 sequence (P07766 23-126 limits assumed): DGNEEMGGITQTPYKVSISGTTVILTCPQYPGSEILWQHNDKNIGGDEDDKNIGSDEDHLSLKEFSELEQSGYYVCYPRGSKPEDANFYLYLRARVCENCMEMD
Method: (§3) FIG. 13. Binding of SYLY×CD3 DSDbody to human and cynomolgus monkey CD3 epsilon measured by biolayer interferometry. Tips were loaded with either human or cynomolgus monkey CD3 epsilon, followed by an association step with 100 nM SYLY×CD3 DSDbody and then a dissociation step.
as §2

[5] = molecular target: T4, human ALPPL2 on tumor cells (M28, SKOV3, AsPC1) (human, UniProt P10696 20-503); test: flow cytometry on AsPC1 cells, anti-hexahistidine detection, curve fit of MFI; AsPC1 pancreatic cancer cells, flow cytometry
T4 construct: whole, on cells; also called ALPPL2 expressing tumor cells; M28 cells
T4 sequence (P10696 20-503): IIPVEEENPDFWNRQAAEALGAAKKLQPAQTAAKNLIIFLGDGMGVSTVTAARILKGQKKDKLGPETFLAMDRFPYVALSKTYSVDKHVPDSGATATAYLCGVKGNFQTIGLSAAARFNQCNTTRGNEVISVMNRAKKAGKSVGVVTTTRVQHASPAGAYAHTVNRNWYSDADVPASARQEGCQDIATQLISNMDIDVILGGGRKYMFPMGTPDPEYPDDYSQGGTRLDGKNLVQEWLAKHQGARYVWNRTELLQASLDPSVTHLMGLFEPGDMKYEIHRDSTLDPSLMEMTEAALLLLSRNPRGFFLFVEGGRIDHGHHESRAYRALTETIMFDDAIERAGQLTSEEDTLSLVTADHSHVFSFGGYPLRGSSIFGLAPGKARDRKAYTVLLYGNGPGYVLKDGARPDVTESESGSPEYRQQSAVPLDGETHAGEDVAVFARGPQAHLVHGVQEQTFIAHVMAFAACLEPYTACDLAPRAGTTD
Method: The bispecific (ALPPL2×CD3) SYLY DSDBody was incubated with AsPC1 cells at room temperature for 1 h, washed and further incubated with anti-tag (hexahistidine (SEQ ID NO: 102)) antibodies for detection by flow cytometry. […] See, FIG. 24.

[6] = molecular target: T3, human CD3 epsilon; test: BLI; tips loaded with human CD3 epsilon, association with 100 nM SYLYxCD3 DSDbody, then dissociation
Method: as §3, §2

[7] = molecular target: T1, human ALPPL2-Fc; test: BLI; tips loaded with human ALPPL2-Fc, association with 100 nM SYLYxCD3 DSDbody, then dissociation
Method: as §1, §2

[8] = molecular target: T5, cynomolgus monkey CD3 epsilon (cynomolgus monkey, UniProt Q95LI5 22-117); test: BLI; tips loaded with cynomolgus monkey CD3 epsilon, association with 100 nM SYLYxCD3 DSDbody, then dissociation
T5 sequence (looked up): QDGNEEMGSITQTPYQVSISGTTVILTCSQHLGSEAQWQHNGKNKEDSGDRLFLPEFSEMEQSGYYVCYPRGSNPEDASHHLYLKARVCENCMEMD
Method: as §3, §2

[9] = molecular target: T4, human ALPPL2 on tumor cells (M28, …); test: apparent KD, flow cytometry on living SKOV3 cells
Method: FIG. 16. Binding of the SYLY-based bispecific (DSDbody) to living SKOV3 cells. SKOV3 cells were incubated with Fabs for 1 h at RT and binding was analyzed by flow cytometry. […] There is no binding by the control bispecific YSC10×CD3 DSDbody that is built on a non-binding isotype control antibody YSC10.
In addition to mesothelioma cells, binding of the SYLY-based bispecific ALPPL2×CD3 DSDbody was also studied on the ovarian cancer cell line SKOV3. […] No binding was detected by the control bispecific YSC10×CD3 that is built on a non-binding isotype control antibody YSC10. For comparison, a reference DSDbody constructed from the parental FYIA was also studied on SKOV3 cells using flow cytometry.

[10] = molecular target: ALPP on HEK293 cells (UniProt P05187 23-506, limits assumed); test: cell-based or functional assay
Sequence of ALPP on HEK293 cells (P05187 23-506 limits assumed): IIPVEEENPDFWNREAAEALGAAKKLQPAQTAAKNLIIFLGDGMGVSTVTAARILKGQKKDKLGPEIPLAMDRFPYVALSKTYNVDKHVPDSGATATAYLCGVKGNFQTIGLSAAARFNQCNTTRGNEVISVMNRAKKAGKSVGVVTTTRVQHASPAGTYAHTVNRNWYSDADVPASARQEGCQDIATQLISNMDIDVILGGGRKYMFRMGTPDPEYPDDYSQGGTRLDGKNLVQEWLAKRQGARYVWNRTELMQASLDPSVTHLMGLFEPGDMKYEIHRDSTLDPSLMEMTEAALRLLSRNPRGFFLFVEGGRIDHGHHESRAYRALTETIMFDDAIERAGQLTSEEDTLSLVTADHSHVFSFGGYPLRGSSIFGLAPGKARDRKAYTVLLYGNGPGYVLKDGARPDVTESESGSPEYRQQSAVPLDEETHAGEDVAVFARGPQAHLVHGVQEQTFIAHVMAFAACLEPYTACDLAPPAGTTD

[11] = molecular target: T4, human ALPPL2 on tumor cells (M28, …); test: cell-based or functional assay
[12] = molecular target: T4, human ALPPL2 on tumor cells (M28, …); test: apparent KD, flow cytometry on living M28 cells; M28 mesothelioma cells, flow cytometry
[13] = molecular target: T1, human ALPPL2-Fc; test: biolayer interferometry, tips loaded with Fab, 5 nM human ALPPL2-Fc as analyte
Method: FIG. 1. Biolayer interferometry (BLI) measurements of the affinity of FYIA, FYIA_germ, FYIA_germ_6-6, and FYIA_germopt (aka SYLY) Fabs for human ALPPL2. Tips were loaded with Fabs, followed by an association step with 5 nM human ALPPL2-Fc then a dissociation step.

[14] = molecular target: T4, human ALPPL2 on tumor cells (M28, …); test: apparent KD, flow cytometry, Fab on living M28 cells
Method: (§4) FIG. 2. Binding of FYIA, FYIA_germ, and FYIA_germopt Fabs to living M28 cells. M28 cells were incubated with Fabs for 1 h at RT and binding was analyzed by flow cytometry.
FIG. 4. Additional Fabs (FYIA_germ_SY and FYIA_germ_6-6) were also studied along with FYIA, FYIA_germ, and FYIA_germopt Fabs for binding to living M28 cells. M28 cells were incubated with Fabs for 1 h at RT and binding was analyzed by flow cytometry.

[15] = molecular target: T6, human ALPI on HEK293 cells (human, UniProt P09923 20-503); test: flow cytometry on HEK293 cells stably transfected with human ALPI, 1 h at RT
T6 construct: whole, on cells; also called HEK293-ALPI cells
T6 sequence (looked up): T2 sequence (looked up)
Method: FIG. 3. Binding of FYIA, FYIA_germ, and FYIA_germopt Fabs to HEK293 cells stably transfected with human ALPI. HEK293-ALPI cells were incubated with Fabs for 1 h at RT and binding was analyzed by flow cytometry. No detectable binding was found. An ALPI-binding Fab, M25AD, was included in the study as a positive control.

[16] = molecular target: T4, human ALPPL2 on tumor cells (M28, …); test: cell binding study, monovalent Fab on M28 cells, flow cytometry
Method: as §4

T1 sequence (P10696 20-503): as the sequence (P10696 20-503) above
Sequence of human ALPPL2 on tumor cells (M28, SKOV3, AsPC1) (human) (P10696 20-503): as above

B1: FYIA_germ_SY Fab (Fab, part only; not given: light variable domain, not tied by name, V domains shown, part only)
VH: EVQLVESGGGLVQPGGSLRLSCAASGFTFSAYAMHWVRQAPGKGLEWVAVISYEGYNAYYADSVKGRFTISRDNSKNTLYLQMNSLRAEDTAVYYCAKEGDYSRWAYDLWGRGTLVTVSS
- Kd [1]: 1.27 nM

B2: SYLY-based bispecific ALPPL2×CD3 DSDbody (bispecific antibody)
chain 1: EVQLVESGGGLVQPGGSLRLSCAASGFTFNTYAMNWVRQAPGKGLEWVGRIRSKYNNYATYYADSVKDRFTISRDDSKNSLYLQMNSLTACDTAVYYCVRHGNFGNSYVSWFAYWGQGTLVTVSSGGGGSQSALTQPASVSGSPGQSITISCTGTSSDVGGYNYVSWYQQHPGKAPKLMIYDVTYRPSGVSNRFSGSKSGNTASLTISGLQAEDEADYYCSSYTVATTLVVFGGGTKLTVLASTKGPSVFPLAPSSKSTSGGTAALGCLVKDYFPEPVTVSWNSGALTSGVHTFPAVLQSSGLYSLSSVVTVPSSSLGTQTYICNVNHKPSNTKVDKKVEPKSCHHHHHH
chain 2: EVQLVESGGGLVQPGGSLRLSCAASGFTFSAYAMHWVRQAPGKGLEWVAVISYEGYNAYYADSVKGRFTISRDNSKNTLYLQMNSLTACDTAVYYCAKEGDYSRWAYDYWGRGTLVTVSSGGGGSDIQMTQSPSSLSASVGDRVTITCRSSTGAVTTSNYANWVQQKPGKAPKGLIGGTNKRAPGVPSRFSGSLIGDKATLTISSLQPEDFATYYCALWYSNLWVFGQGTKVEIKRTVAAPSVFIFPPSDEQLKSGTASVVCLLNNFYPREAKVQWKVDNALQSGNSQESVTEQDSKDSTYSLSSTLTLSKADYEKHKVYACEVTHQGLSSPVTKSFNRGEC
notes: Dually stabilized diabody: inter-chain disulfide link and CH1/CL pairing; Anti-CD3 arm is humanized SP34 (hSP34k2); also called SYLY×CD3 DSDbody; SYLY DSDbody
- Kd [2]: ~0.2 nM
- binding result [3]: no binding (tested: 100 nM)
- Kd [4]: 20 nM
- Kd [5]: 4.35 nM
- Kd [6]: 25 nM
- Kd [7]: 0.2 nM
- Kd [8]: 18 nM
- Kd [9]: 0.19 nM
- EC50 of killing of HEK293-ALPP cells with human PBMC (E:T 10:1, 72h, Calcein AM) [10]: 0.0085 nM
- EC50 of killing of SKOV3 cells with human PBMC (E:T 10:1, 96h, Calcein AM) [11]: 0.0003 nM
- Kd [12]: 2.4 nM

B3: FYIA_germ Fab (Fab, V domains shown)
VH: B1 VH with A31S, E54D, Y56S, A58K, Y102S, A106S
VL: QSALTQPASVSGSPGQSITISCTGTSSDVGGYNYVSWYQQHPGKAPKLMIYDVTNRPSGVSNRFSGSKSGNTASLTISGLQAEDEADYYCSSYTIASTLVVFGGGTKLTVL
notes: Tested as monovalent Fab
- Kd [13]: 13 nM
- Kd [14]: 69.4 nM
- binding result [15]: no binding (tested: 10000 nM)

B4: FYIA_germopt Fab (Fab, V domains shown)
VH: B1 VH with L109Y
VL: B3 VL with R56Y, I95V, S97T
notes: Tested as monovalent Fab; also called SYLY
- Kd [13]: 0.19 nM
- Kd [14]: 0.967 nM
- binding result [15]: no binding (tested: 10000 nM)
- fold improvement over the parental FYIA [16]: > 30 fold

From patent US20250145733A1 (University of California, published 2025)
